Results as given in patent publication US20060035245, “Modulators of enzymatic nucleic acid elements mobilization” (published 2006).

Biological target: Tn5 transposase hyperactive mutant (EK54, MA56, LP372) (UniProt Q46731 Q46731:1-476, E54K,M56A,L372P)
Test: EMSA; complex assembly, inhibited by small molecules with IC50 3.5-46 uM
Conditions: chain copies: 2; label: fluorescein 5' end of transferred strand
Experimental: For FP analysis, 60 μL reactions were analyzed using the FP protocol on a Wallac Victor V plate reader and a 7% native polyacrylamide gel was used in gel shift assays. For compound screening and subsequent analysis, 1 μL of either DMSO or test compound (final concentration 80 μM) was added to the synapsis reactions. Compound screening was carried out using a Beckman Coulter Biomek FX in a 384 well format. […] IC₅₀ values were obtained by fitting inhibitor titration data (0, 0.01, 0.05, 0.1, 0.5, 2.5, 10, 20, 35, 50, 100, 200, 400, 800 μM) to an exponential decay.

B1: 60 bp Tn5 substrate for inhibitor verification (dsDNA)
DNA 1: GGCCACGACACGCTCCCGCGCTGTCTCTTATACACATCTTGAGTGAGTGAGCATGCATGT
DNA 2: ACATGCATGCTCACTCACTCAAGATGTGTATAAGAGACAGCGCGGGAGCGTGTCGTGGCC
Q: Does B1 bind?
A: binds
